Literature values, collected in publication PMC8239176.

Target: KLC1 (Homo sapiens) (UniProt Q07866)
UniProt Q07866, sequence (Q07866 whole entry): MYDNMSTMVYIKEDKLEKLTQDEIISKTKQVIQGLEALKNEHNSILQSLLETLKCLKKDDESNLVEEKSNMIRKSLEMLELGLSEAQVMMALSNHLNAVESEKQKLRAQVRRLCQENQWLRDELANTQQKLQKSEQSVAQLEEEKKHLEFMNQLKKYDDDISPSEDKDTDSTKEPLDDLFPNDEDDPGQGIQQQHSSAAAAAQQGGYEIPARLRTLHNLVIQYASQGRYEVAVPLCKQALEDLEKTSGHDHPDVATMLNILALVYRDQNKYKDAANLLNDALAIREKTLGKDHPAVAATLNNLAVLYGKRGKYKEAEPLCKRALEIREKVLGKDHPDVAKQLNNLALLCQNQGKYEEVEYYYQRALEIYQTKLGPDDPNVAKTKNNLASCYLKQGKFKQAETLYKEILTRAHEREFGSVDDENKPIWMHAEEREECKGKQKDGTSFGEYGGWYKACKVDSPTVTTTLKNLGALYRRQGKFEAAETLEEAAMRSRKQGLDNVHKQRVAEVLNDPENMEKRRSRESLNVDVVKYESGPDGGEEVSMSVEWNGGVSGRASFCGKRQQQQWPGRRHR

Kd: 3.8 µM
Substance: SFPQ (from UniProt P23246)
